The values below come from US20260035464A1 (STAIDSON BIOPHARMA, published 2026).

Test [1] has as its target T1, human BTLA extracellular domain with C-terminal mouse IgG2a Fc tag (human; mouse, UniProt Q7Z6A9 31-157).
T1 construct: also called huBTLA with mIgG2a Fc tag; not shown: mouse IgG2a Fc, C-terminal
T1 sequence: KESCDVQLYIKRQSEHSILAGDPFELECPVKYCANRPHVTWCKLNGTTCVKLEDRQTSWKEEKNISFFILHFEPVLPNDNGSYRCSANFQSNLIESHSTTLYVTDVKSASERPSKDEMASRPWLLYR
The experiment in a line: blocking ELISA, huBTLA-mIgG2a Fc coated; competitor huHVEM-His (2 ug/ml). How it is done:
HVEM blocking by purified recombinant chimeric antibodies by ELISA: Human HVEM (huHVEM) blocking ELISA was performed on purified recombinant chimeric anti-BTLA antibodies. Briefly, 384-well, clear flat bottom high binding plates (Corning, cat #3700) were coated overnight at 4° C. with 0.333 μg/mL purified huBTLA with mIgG2a Fc tag in PBS (coating solution). After removing the coating solution, the plates were blocked by adding blocking buffer and incubated at 37° C. for 1 hour. Plates were then washed 3 times with wash buffer. Serial dilution of purified chimeric antibodies in PBS were added to individual well followed by incubation at 37° C. for 1 hour. Plates were washed 3 times with wash buffer. Then 30 μL per well of 2 μg/ml human HVEM with His tag (Sino Biological, cat #10334-H08H) in assay buffer was added into the reaction and incubated for 1 hour. Plates were washed 3 times with wash buffer. Then 30 μL per well of mouse anti-his-AP (Southern Biotech, cat: 4603-04) at 1:500 dilution in ELISA diluent was added, and incubated at 37° C. for 30 min, then the plates were washed 5 times with wash buffer and developed for 30 minutes with 30 μL per well of pNPP substrate. Plates were analyzed with a Bio-TEK at 405 nm. The blocking IC₅₀ value represents the antibody concentration that inhibited 50% of huHVEM binding to coated human BTLA.
(In general: An ELISA detects its analyte on a solid surface through an enzyme-linked reagent.)

Test [2] deals with T2, rhesus monkey BTLA extracellular domain protein with His tag (Sino Biological, cat #90250-C08H) (rhesus monkey, UniProt G7MKA9 31-157).
T2 construct: extracellular domain; Bought protein; also called His-tag-rhesus monkey BTLA; not shown: His tag
T2 sequence: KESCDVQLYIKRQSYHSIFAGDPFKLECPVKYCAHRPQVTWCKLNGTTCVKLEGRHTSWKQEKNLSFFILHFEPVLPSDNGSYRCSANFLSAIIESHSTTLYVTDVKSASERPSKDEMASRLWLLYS
Kind of test: ELISA, rhesus monkey BTLA coated at 0.333 ug/mL, anti-human IgG Fc-AP detection. How it is done:
(§1) BTLA binding of purified recombinant chimeric antibodies by ELISA: The huBTLA and rhesus monkey BTLA antigen binding ELISA was performed on the purified recombinant chimeric antibodies. Briefly, 384-well, clear flat bottom high binding plates (Corning, cat #3700) were coated overnight at 4° C. with 0.333 μg/mL of huBTLA or rhesus monkey BTLA in PBS. The following purified process was performed as described in ELISA binding assay in Example 2, except that the secondary antibody was goat anti human IgG Fc-AP (Southern Biotech, cat #2014-04).

In test [3] the target is T3, huBTLA as coated in the binding ELISA of Example 3 (tag not stated) (human, UniProt Q7Z6A9 31-157).
T3 construct: Detection was with anti-human IgG Fc
T3 sequence: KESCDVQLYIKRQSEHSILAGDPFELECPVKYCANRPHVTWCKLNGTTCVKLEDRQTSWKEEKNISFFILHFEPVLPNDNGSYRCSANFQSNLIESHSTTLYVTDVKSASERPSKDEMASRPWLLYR
Kind of test: ELISA, huBTLA coated at 0.333 ug/mL, anti-human IgG Fc-AP detection. How it is done:
as §1

Test [4] concerns the target T4, human BTLA (Uniprot Q7Z6A9) expressed on cells (human, UniProt Q7Z6A9 31-289).
T4 construct: whole, on cells; also called huBTLA-overexpressing Expi293 cells
The experiment in a line: flow cytometry blocking assay on huBTLA-overexpressing Expi293 cells, antibody titrated, soluble human HVEM-mouse IgG2a Fc detected. How it is done: (§2) Expi293 cells stably overexpressing huBTLA were incubated with chimeric anti-BTLA antibody 83F2 or 86B7 for 30 minutes at 4° C. The cells were washed, and then incubated with human HVEM-mouse IgG2a Fc recombinant protein (Acro Biosystems, cat #HVM-H5255) at […] concentration for 20 minutes at 4° C. The human HVEM bindings were detected by goat anti-mouse Alexa 488 secondary antibody (ThermoFisher, cat #A-11029). Cells were washed and acquired by flow cytometry with Attune. Data were analyzed with FlowJo software. BTLA binding is represented as MFI.
FACS based blocking assays of humanized anti-BTLA antibodies were performed as described above in Example 3.
(In general: Flow cytometry measures light scatter and fluorescence of single cells or particles in a stream.)

The target in test [5] is T3, huBTLA as coated in the binding ELISA …. The experiment in a line: ELISA, plate coated with huBTLA, detection with goat anti-human IgG Fc-AP, OD405. How it is done:
as §1

Test [6] has as its target T4, human BTLA (Uniprot Q7Z6A9) expressed …. The experiment in a line: flow cytometry on huBTLA-overexpressing Expi293 cells, MFI. How it is done: Expi293 cells stably overexpressing huBTLA were incubated with the chimeric anti-BTLA antibodies 83F2 or 86B7 in PBS containing 0.5% BSA, 1 mM EDTA, and 0.1% sodium azide (FACS buffer) for 30 minutes at 4° C. The cells were washed, and then incubated with 10 nM phycoerythrin (PE) conjugated anti-Human Fc Ab (BioLegend, cat #409304) for 20 minutes at 4° C. Cells were washed and then analyzed by flow cytometry with Attune (ThermoFisher Scientific). Data were analyzed with FlowJo software. Antibody binding is represented as median fluorescence intensity (MFI).
FACS based binding assays of humanized anti-BTLA antibodies were performed as described above in Example 3.

Test [7] has the same target. Kind of test: flow cytometry blocking on huBTLA-overexpressing Expi293 cells; competitor human HVEM-mouse IgG2a Fc. How it is done: as §2
The target of test [8] is T5, extracellular domain of human BTLA with FAS, expressed on Jurkat cells (human, UniProt Q7Z6A9 31-157; P25445 174-335, limits assumed).
T5 sequence (looked up): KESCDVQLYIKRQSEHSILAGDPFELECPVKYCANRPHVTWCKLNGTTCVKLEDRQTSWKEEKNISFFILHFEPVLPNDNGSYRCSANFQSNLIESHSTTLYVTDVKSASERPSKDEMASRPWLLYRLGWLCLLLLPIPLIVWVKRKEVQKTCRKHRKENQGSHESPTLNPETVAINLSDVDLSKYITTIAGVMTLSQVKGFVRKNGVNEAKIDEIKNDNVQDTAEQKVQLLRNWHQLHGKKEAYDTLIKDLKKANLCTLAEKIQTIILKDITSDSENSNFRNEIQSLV
Kind of test: cell-based or functional assay.

In test [9] the target is T4, human BTLA (Uniprot Q7Z6A9) expressed …. Kind of test: cell-based or functional assay.

B1: chimeric anti-BTLA antibody 86B7 (antibody, V domains shown)
VH: QVTLKESGPGILQPSQTLSLTCSFSGFSLSTFGMGVSWIRQPSGKGLEWLAHIYWDDDKRFNPSLKSRLSISKDTSNNQVFLKITTVDTADTATYYCARGNWDGETYFDYWGQGTTLTVSS
VL: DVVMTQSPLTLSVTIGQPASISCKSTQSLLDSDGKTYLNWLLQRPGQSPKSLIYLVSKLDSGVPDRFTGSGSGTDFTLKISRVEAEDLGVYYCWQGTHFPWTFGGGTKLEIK
Consider B1, for which the values for the IC50 in test [1] and in test [7] were 1.02 nM and 0.259 nM, respectively. Moreover, the EC50 was found to be 0.0559 nM in test [2] and 0.0511 nM in test [3]. Besides, the “IC50 (read off the curve)” value in test [4] is roughly 0.4 nM. The “EC50 (read off the curve)” value was roughly 0.4 nM in [5] and roughly 0.8 nM in test [6]. In [8], the “EC50 of inhibition of huHVEM-Fc-induced apoptosis, Jurkat-huBTLA-FAS cells (ATP luminescence)” value was 0.109 nM. Besides, the “EC50 of recovery of IL-2 production, Raji-HVEM/Jurkat-BTLA coculture” value in test [9] was found to be 0.554 nM.

What is called IC50 is the concentration that inhibits the measured activity by half. One may read the EC50 as the concentration needed to bring the measured effect to its halfway point. What is called EC50 (read off the curve) is the concentration that produces a half-maximal response.
